The chains are these.
T1: Tse15 central Rhs domain (residues 335-1395) (Acinetobacter baumannii (strain …, UniProt A0A5K6CSR3 335-1395))
T1 sequence (looked up): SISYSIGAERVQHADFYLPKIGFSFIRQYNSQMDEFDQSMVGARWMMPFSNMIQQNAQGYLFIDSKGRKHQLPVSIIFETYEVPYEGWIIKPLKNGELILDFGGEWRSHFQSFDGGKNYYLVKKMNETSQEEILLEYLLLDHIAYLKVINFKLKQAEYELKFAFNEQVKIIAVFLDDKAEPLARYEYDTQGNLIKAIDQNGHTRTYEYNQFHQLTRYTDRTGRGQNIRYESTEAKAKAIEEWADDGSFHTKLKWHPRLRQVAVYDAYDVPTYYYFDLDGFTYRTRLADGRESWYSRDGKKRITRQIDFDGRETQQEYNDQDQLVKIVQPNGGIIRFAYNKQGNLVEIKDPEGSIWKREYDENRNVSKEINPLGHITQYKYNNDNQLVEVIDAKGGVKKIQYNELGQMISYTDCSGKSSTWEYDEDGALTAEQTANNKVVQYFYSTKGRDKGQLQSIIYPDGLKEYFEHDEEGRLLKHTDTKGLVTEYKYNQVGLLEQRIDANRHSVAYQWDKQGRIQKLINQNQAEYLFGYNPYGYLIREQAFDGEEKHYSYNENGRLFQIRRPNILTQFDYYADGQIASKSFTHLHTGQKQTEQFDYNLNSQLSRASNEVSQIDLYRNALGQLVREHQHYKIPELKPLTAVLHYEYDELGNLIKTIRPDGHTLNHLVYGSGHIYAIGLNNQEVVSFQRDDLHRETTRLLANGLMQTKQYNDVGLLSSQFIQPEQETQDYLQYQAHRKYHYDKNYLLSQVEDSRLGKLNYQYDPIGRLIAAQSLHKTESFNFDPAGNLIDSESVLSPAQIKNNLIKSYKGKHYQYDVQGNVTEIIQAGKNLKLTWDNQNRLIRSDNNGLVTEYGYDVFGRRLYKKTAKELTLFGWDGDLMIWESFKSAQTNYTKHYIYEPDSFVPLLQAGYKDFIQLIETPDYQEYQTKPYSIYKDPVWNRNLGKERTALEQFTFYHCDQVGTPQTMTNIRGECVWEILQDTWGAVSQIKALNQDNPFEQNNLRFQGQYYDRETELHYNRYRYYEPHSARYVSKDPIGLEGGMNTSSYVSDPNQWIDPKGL

B1: Tse15 N-terminal clade domain (residue 1-334) (domain or fragment, UniProt A0A5K6CSR3 1-334, looked up)
chain: MAKENTQQKEIKRQPAVELAVFNLNSVTDVADLQMIASQVQLYLQVCGNTTLEQIKSKANITTVANIFALTGSVLDLMLYATDKKTGDAAVQRGALLAANLIGLFSEPNNEAHARMALRPMFGLMAECLYRENGKIKETDIKRLGLHLNAMIAGDLENFLKETQAKLSSLLISATTLGVTILQSMATPATGINAGITTAAGASAEKRDPKLKFTNWAVPLIDLLGKPSQANLTPKIQPNITSRLQQEATQAIAALSQTLQQQANAGQKYTLAWLLQETLKAIQALENKGNASVPINQTGEYERHTKGDTLEFVSLQADALNAPPCEGADSQSGK
B2: Tse15 toxic C-terminal domain (residues 1396-1590) (domain or fragment, UniProt A0A5K6CSR3 1396-1590, looked up)
chain: NSFNYGEMFGIPASAQSGLAYQGQRNYECYAETGELCKIKVPPLFDYVACSGGGLGIGVGFVKNQWTGEYYISGSKDSLLIPVAKSVAQNKQFSAKDLAGASCVGGNIHNIPSYTKTTMTMGEITNEFVSGASVTVGGGAYGAVANVVVPLVSKSSPVKGTWASELGVGTPGFNVGVSGTVSVDTILDAVKPSKK

Test [1] has as its target T1, Tse15 central Rhs domain (residues …). The test is described as follows: SEC.
Test [2] has the same target. Put plainly: pull-down.
In test [3] the target is B1. Put plainly: pull-down.

This is an account of results in paper doi:10.1101/2023.11.18.567679 (bioRxiv, 2023).

In the case of B1, the binding result in test [1] is “binds”. As to B2, the binding result in test [2] and in test [3] was “binds” in each case.
